Laboratory results as given in patent US20260125472A1 (HEFEI TG IMMUNOPHARMA, published 2026).

Legend:
[1] = target: T1, PDL1 on A-375 melanoma cells, HCT-15 colorectal cancer cells and A549 lung cancer cells (UniProt Q9NZQ7 19-290, limits assumed); test: flow cytometry, A549 cells, MFI [panel B]
T1 construct: whole, on cells
Protocol: (2) The tumor cells were diluted to 2×10⁶/ml with PBS and added to a 1.5 ml EP tube at a volume of 100 μl/tube, and goat serum was added thereto at 10 μl/tube. The cells were blocked at 4° C. for 30 min. The serially diluted bispecific antibodies, Cross3×Trop2, Cross303×Trop2, Cross307×Trop2, Cross308×Trop2, Cross309×Trop2, Cross310×Trop2, Cross311×Trop2, Cross312×Trop2, Cross313×Trop2, Cross314×Trop2, Cross316×Trop2, Cross317×Trop2, Cross318×Trop2, Cross323×Trop2, Cross325×Trop2, Cross326×Trop2, and Cross3×PDL1, Cross303×PDL1, Cross307×PDL1, Cross308×PDL1, Cross309×PDL1, Cross310×PDL1, Cross311×PDL1, Cross312×PDL1, Cross313×PDL1, Cross314×PDL1, Cross316×PDL1, Cross317×PDL1, Cross318×PDL1, Cross323×PDL1, Cross325×PDL1, Cross326×PDL1, and control hIgG1LALA (purchased from Bio-Tech) were added and incubated at 4° C. for 30 min. 1 ml of PBS was added to the EP tube, followed by centrifugation at 3500 rpm for 5 min at 4° C. The supernatant was discarded, and the cells were washed again with PBS. After centrifugation, the supernatant was completely discarded, and the cells were resuspended with PBS at 100 μl/tube. Alexa-647-labeled goat anti-human IgG secondary antibody (purchased from Jackson lab) was added at 1 μl/tube and incubated at 4° C. in the dark for 30 min. The cells were washed twice with PBS, and the supernatant was completely discarded after centrifugation. The cells were resuspended with PBS at 200 μl/tube and assay was performed using the flow cytometry.

PDL1 protein = target: T2, PDL1 protein (UniProt Q9NZQ7 19-238); test: ELISA, coated PDL1 protein, OD450 [panel B]
T2 construct: Bought recombinant protein
T2 sequence (Q9NZQ7 19-238 limits assumed): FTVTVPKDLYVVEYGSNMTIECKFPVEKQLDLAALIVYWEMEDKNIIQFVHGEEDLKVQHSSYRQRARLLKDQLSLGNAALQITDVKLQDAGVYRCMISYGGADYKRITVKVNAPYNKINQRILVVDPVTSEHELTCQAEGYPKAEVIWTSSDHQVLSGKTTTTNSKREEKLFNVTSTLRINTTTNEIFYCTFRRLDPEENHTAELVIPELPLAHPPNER
Protocol: (3) PDL1 protein (purchased from Acro) was diluted to 2 μg/ml with PBS buffer, added to a 96-well plate at a volume of 100 μL/well, and placed at 4° C. overnight. The PBS buffer in the 96-well plate was aspirated, and the plate was washed 6 times with PBST (pH 7.2 PBS containing 0.10% Tween 20) buffer. Then, PBS/10% BSA was added at 200 μL/well and incubated at 37° C. for 2 h for blocking. The blocking solution was removed, and the plate was washed six times with PBST. Then, the to-be-tested bispecific antibodies serially diluted with PBST/0.05% BSA, Cross3×PDL1, Cross303×PDL1, Cross307×PDL1, Cross308×PDL1, Cross309×PDL1, Cross310×PDL1, Cross311×PDL1, Cross312×PDL1, Cross313×PDL1, Cross314×PDL1, Cross316×PDL1, Cross317×PDL1, Cross318×PDL1, Cross323×PDL1, Cross325×PDL1, Cross326×PDL1, and control IgG1LALA (purchased from Bio-Tech) were added at 100 μL/well, and incubated at 37° C. for 1 h. The reaction system was removed, and the plate was washed 6 times with PBST. Then, the cells were incubated at 37° C. for 1 h with HRP (horseradish peroxidase)-labeled anti-human secondary antibody (Fab specific) (purchased from Sigma) serially diluted with PBST/0.05% BSA at 100 μL/well. After the plate was washed six times with PBST, TMB (tetramethylbenzidine) was added at 80 μL/well and incubated at room temperature for 3 min. 4 M sulfuric acid was added at 80 μL/well to terminate the reaction. The absorbance was read at 450 nm using a microplate reader.

CD3E&D protein = target: T3, CD3E&D protein (UniProt P04234 22-105); test: ELISA, coated CD3E&D protein, OD450 [panel B]
T3 construct: Purchased from Acro; also called CD3 E&D antigens; CD3E&D antigen protein
T3 sequence (chain, as listed by the source limits assumed, chain 1 of 2): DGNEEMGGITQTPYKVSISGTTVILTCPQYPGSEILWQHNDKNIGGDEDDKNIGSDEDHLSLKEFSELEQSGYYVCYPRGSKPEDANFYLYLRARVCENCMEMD
T3 sequence (P04234 22-105 limits assumed, chain 2 of 2): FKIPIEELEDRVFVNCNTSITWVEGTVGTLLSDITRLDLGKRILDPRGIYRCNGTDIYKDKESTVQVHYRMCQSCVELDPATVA
Excerpt: In this example, the binding properties of the CD3×Trop2 and CD3×PDL1 bispecific antibody (the production method and the amino acid sequences of the heavy and light chains were shown in Example 1) were detected by using ELISA. The CD3E&D, Trop2, or PDL1 protein was coated onto 96-well plates by inventors, and the strength of the signal after the addition of the antibody was used to determine the binding properties of the antibody and the corresponding protein.
(1) CD3E&D protein (purchased from Acro) was diluted to 2 μg/ml with PBS buffer, added to a 96-well plate at a volume of 100 μL/well, and placed at 4° C. overnight. The PBS buffer in the 96-well plate was aspirated, and the plate was washed 6 times with PBST (pH 7.2 PBS containing 0.1% Tween 20) buffer. Then, 200 μL/well PBS/10% BSA was added and incubated at 37° C. for 2 h for blocking. The blocking solution was removed, and the plate was washed 6 times with PBST. Then, the to-be-tested bispecific antibodies serially diluted with PBST/0.05% BSA, Cross3×Trop2, Cross303×Trop2, Cross307×Trop2, Cross308×Trop2, Cross309×Trop2, Cross310×Trop2, Cross311×Trop2, Cross312×Trop2, Cross313×Trop2, Cross314×Trop2, Cross316×Trop2, Cross317×Trop2, Cross318×Trop2, Cross323×Trop2, Cross325×Trop2, Cross326×Trop2, Cross3×PDL1, Cross303×PDL1, Cross307×PDL1, Cross308×PDL1, Cross309×PDL1, Cross310×PDL1, Cross311×PDL1, Cross312×PDL1, Cross313×PDL1, Cross314×PDL1, Cross316×PDL1, Cross317×PDL1, Cross318×PDL1, Cross323×PDL1, Cross325×PDL1, Cross326×PDL1, and control IgG1LALA (purchased from Bio-Tech) were added at 100 μL/well, and incubated at 37° C. for 1 h. The reaction system was removed, and the plate was washed 6 times with PBST. Then, the cells were incubated at 37° C. for 1 h with HRP (horseradish peroxidase)-labeled anti-human secondary antibody (Fab specific) (purchased from Sigma) diluted with PBST/0.05% BSA at 100 μL/well. After the plate was washed six times with PBST, 80 μL/well TMB (tetramethylbenzidine) was added and incubated at room temperature for 3 min. […] The absorbance was read at 450 nm using a microplate reader.

CD3 on CD8 T cells = target: T4, CD3 on CD8 T cells (Homo sapiens (Human), UniProt P07766 23-207); test: flow cytometry, CD8 T cells in PBMCs, binding ratio % [panel A]
T4 construct: Native CD3 complex on CD8 T cells among PBMCs; also called T cells (PBMCs gated with anti-human CD8 antibody)
T4 sequence (P07766 23-207 limits assumed): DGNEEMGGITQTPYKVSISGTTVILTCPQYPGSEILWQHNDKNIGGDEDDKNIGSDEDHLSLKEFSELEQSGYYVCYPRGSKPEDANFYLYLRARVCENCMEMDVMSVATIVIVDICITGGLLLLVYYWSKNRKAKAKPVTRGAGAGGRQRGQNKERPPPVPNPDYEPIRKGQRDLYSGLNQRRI
Protocol: (1) PBMCs were diluted to 2×10⁶/ml with PBS and added to a 1.5 ml EP tube at 100 μl/tube, goat serum was added thereto at 10 μl/tube. The cells were blocked at 4° C. for 30 min. The serially diluted bispecific antibodies, Cross3×Trop2, Cross303×Trop2, Cross307×Trop2, Cross308×Trop2, Cross309×Trop2, Cross310×Trop2, Cross311×Trop2, Cross312×Trop2, Cross313×Trop2, Cross314×Trop2, Cross316×Trop2, Cross317×Trop2, Cross318×Trop2, Cross323×Trop2, Cross325×Trop2, Cross326×Trop2, Cross3×PDL1, Cross313×PDL1, Cross316×PDL1, Cross325×PDL1, and control hIgG1LALA (purchased from Bio-Tech) were added and incubated at 4° C. for 30 min. 1 ml of PBS was added to the EP tube, followed by centrifugation at 3500 rpm for 5 min at 4° C. The supernatant was discarded, and the system was washed again with PBS. After centrifugation, the supernatant was discarded, and the cells were resuspended with PBS at 100 μl/tube. 1 μl/tube Alexa-647-labeled goat anti-human IgG secondary antibody (purchased from Jackson lab) and 0.5 μl/tube PerCP-Cy5.5-labeled anti-human CD8 antibody were added and incubated at 4° C. in the dark for 30 min. The cells were washed twice with PBS. After centrifugation, the supernatant was discarded. The cells were resuspended with 200 μl/tube of PBS and assay is performed by flow cytometry.

T1 sequence (Q9NZQ7 19-290 limits assumed): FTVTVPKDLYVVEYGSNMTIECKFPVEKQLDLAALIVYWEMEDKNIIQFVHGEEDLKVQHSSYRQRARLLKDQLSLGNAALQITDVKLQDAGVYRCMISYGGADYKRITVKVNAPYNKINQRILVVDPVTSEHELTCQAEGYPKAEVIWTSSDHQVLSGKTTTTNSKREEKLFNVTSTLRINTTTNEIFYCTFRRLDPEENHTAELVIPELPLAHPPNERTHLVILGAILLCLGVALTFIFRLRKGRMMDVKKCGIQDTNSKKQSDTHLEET

Binder	EC50 (read off the curve) [1]	EC50 (read off the curve) (PDL1 protein)	EC50 (read off the curve) (CD3E&D protein)	EC50 (read off the curve) (CD3 on CD8 T cells)
Cross318×PDL1 (bispecific antibody, human IgG1, kappa, L234A L235A) scFv: not shown heavy: QVQLVQSGAEVKKPGASVKVSCKASGYSFTGYYMHWVRQAPGQGLEWIGRINPYNGATTYSQNFKDRATMTVDTSISTAYMELSRLRSDDTAVYYCVPTGMGYFLMDYWGQGTLVTVSSASTKGPSVFPLAPSSKSTSGGTAALGCLVKDYFPEPVTVSWNSGALTSGVHTFPAVLQSSGLYSLSSVVTVPSSSLGTQTYICNVNHKPSNTKVDKKVEPKSCDKTHTCPPCPAPEAAGGPSVFLFPPKPKDTLMISRTPEVTCVVVDVSHEDPEVKFNWYVDGVEVHNAKTKPREEQYNSTYRVVSVLTVLHQDWLNGKEYKCKVSNKALPAPIEKTISKAKGQPREPQVCTLPPSREEMTKNQVSLSCAVKGFYPSDIAVEWESNGQPENNYKTTPPVLDSDGSFFLVSKLTVDKSRWQQGNVFSCSVMHEALHNHYTQKSLSLSPGK light: DIQLTQSPSFLSASVGDRVTITCKASQDVGSAVVWYQQKPGKAPKLLIYWASTRHTGVPSRFSGSGSGTEFTLTISSLQPEDFATYFCQQFTSYPTFGQGTKLEIKRTVAAPSVFIFPPSDEQLKSGTASVVCLLNNFYPREAKVQWKVDNALQSGNSQESVTEQDSKDSTYSLSSTLTLSKADYEKHKVYACEVTHQGLSSPVTKSFNRGEC	~1 µg/mL	~0.2 µg/mL	~1 µg/mL	–
Cross325×PDL1 (bispecific antibody, human IgG1, kappa, L234A L235A) scFv: not shown heavy: QVQLVQSGAEVKKPGASVKVSCKASGYSFTGYYMHWVRQAPGQGLEWIGRINPYNGATTYSQNFKDRATMTVDTSISTAYMELSRLRSDDTAVYYCVPTGMGYFLMDYWGQGTLVTVSSASTKGPSVFPLAPSSKSTSGGTAALGCLVKDYFPEPVTVSWNSGALTSGVHTFPAVLQSSGLYSLSSVVTVPSSSLGTQTYICNVNHKPSNTKVDKKVEPKSCDKTHTCPPCPAPEAAGGPSVFLFPPKPKDTLMISRTPEVTCVVVDVSHEDPEVKFNWYVDGVEVHNAKTKPREEQYNSTYRVVSVLTVLHQDWLNGKEYKCKVSNKALPAPIEKTISKAKGQPREPQVCTLPPSREEMTKNQVSLSCAVKGFYPSDIAVEWESNGQPENNYKTTPPVLDSDGSFFLVSKLTVDKSRWQQGNVFSCSVMHEALHNHYTQKSLSLSPGK light: DIQLTQSPSFLSASVGDRVTITCKASQDVGSAVVWYQQKPGKAPKLLIYWASTRHTGVPSRFSGSGSGTEFTLTISSLQPEDFATYFCQQFTSYPTFGQGTKLEIKRTVAAPSVFIFPPSDEQLKSGTASVVCLLNNFYPREAKVQWKVDNALQSGNSQESVTEQDSKDSTYSLSSTLTLSKADYEKHKVYACEVTHQGLSSPVTKSFNRGEC	~1 µg/mL	~0.1 µg/mL	~0.7 µg/mL	~0.4 µg/mL
Cross323×PDL1 (bispecific antibody, human IgG1, kappa, L234A L235A) scFv: not shown heavy: QVQLVQSGAEVKKPGASVKVSCKASGYSFTGYYMHWVRQAPGQGLEWIGRINPYNGATTYSQNFKDRATMTVDTSISTAYMELSRLRSDDTAVYYCVPTGMGYFLMDYWGQGTLVTVSSASTKGPSVFPLAPSSKSTSGGTAALGCLVKDYFPEPVTVSWNSGALTSGVHTFPAVLQSSGLYSLSSVVTVPSSSLGTQTYICNVNHKPSNTKVDKKVEPKSCDKTHTCPPCPAPEAAGGPSVFLFPPKPKDTLMISRTPEVTCVVVDVSHEDPEVKFNWYVDGVEVHNAKTKPREEQYNSTYRVVSVLTVLHQDWLNGKEYKCKVSNKALPAPIEKTISKAKGQPREPQVCTLPPSREEMTKNQVSLSCAVKGFYPSDIAVEWESNGQPENNYKTTPPVLDSDGSFFLVSKLTVDKSRWQQGNVFSCSVMHEALHNHYTQKSLSLSPGK light: DIQLTQSPSFLSASVGDRVTITCKASQDVGSAVVWYQQKPGKAPKLLIYWASTRHTGVPSRFSGSGSGTEFTLTISSLQPEDFATYFCQQFTSYPTFGQGTKLEIKRTVAAPSVFIFPPSDEQLKSGTASVVCLLNNFYPREAKVQWKVDNALQSGNSQESVTEQDSKDSTYSLSSTLTLSKADYEKHKVYACEVTHQGLSSPVTKSFNRGEC	–	~0.2 µg/mL	~1 µg/mL	–
